Assay results: paper PMC6779467, “Cytoplasmic protein misfolding titrates Hsp70 to activate nuclear Hsf1” (eLife, 2019)

B1: Ssa1 (6xHis-SUMO tag cleaved with Ulp1) (natural protein)
chain: not shown
notes: Hsp70 Ssa1, S. cerevisiae; Same construct as m2 after cleavage of the tag with Ulp1 SUMO protease; also called Hsp70; Hsp70 Ssa1; source: E. coli BL21-SI/pCodonPlus with pCA1026, coexpressed with Hsf1-StrepTag II and Sis1; purified (Ni-IDA, Ulp1 cleavage, Strep-Tactin Sepharose through Hsf1); not shown: 6xHis-SUMO, N-terminal, cleaved
B2: Hsf1-StrepTag II (natural protein, S. cerevisiae, UniProt P10961 1-833, looked up)
chain: MNNAANTGTTNESNVSDAPRIEPLPSLNDDDIEKILQPNDIFTTDRTDASTTSSTAIEDIINPSLDPQSAASPVPSSSFFHDSRKPSTSTHLVRRGTPLGIYQTNLYGHNSRENTNPNSTLLSSKLLAHPPVPYGQNPDLLQHAVYRAQPSSGTTNAQPRQTTRRYQSHKSRPAFVNKLWSMLNDDSNTKLIQWAEDGKSFIVTNREEFVHQILPKYFKHSNFASFVRQLNMYGWHKVQDVKSGSIQSSSDDKWQFENENFIRGREDLLEKIIRQKGSSNNHNSPSGNGNPANGSNIPLDNAAGSNNSNNNISSSNSFFNNGHLLQGKTLRLMNEANLGDKNDVTAILGELEQIKYNQIAISKDLLRINKDNELLWQENMMARERHRTQQQALEKMFRFLTSIVPHLDPKMIMDGLGDPKVNNEKLNSANNIGLNRDNTGTIDELKSNDSFINDDRNSFTNATTNARNNMSPNNDDNSIDTASTNTTNRKKNIDENIKNNNDIINDIIFNTNLANNLSNYNSNNNAGSPIRPYKQRYLLKNRANSSTSSENPSLTPFDIESNNDRKISEIPFDDEEEEETDFRPFTSRDPNNQTSENTFDPNRFTMLSDDDLKKDSHTNDNKHNESDLFWDNVHRNIDEQDARLQNLENMVHILSPGYPNKSFNNKTSSTNTNSNMESAVNVNSPGFNLQDYLTGESNSPNSVHSVPSNGSGSTPLPMPNDNDTEHASTSVNQGENGSGLTPFLTVDDHTLNDNNTSEGSTRVSPDIKFSATENTKVSDNLPSFNDHSYSTQADTAPENAKKRFVEEIPEPAIVEIQDPTEYNDHRLPKRAKK
notes: Hsf1, S. cerevisiae; HSF1 amplified with primers from the start codon to the last codon before the tag; also called Heat shock factor 1; yeast Hsf1; source: E. coli BL21-SI/pCodonPlus with pCA1026, coexpressed with 6xHis-SUMO-Ssa1 and Sis1; purified (Ni-IDA, Strep-Tactin Sepharose); not shown: Strep Tag II, C-terminal, kept

Experiments:
Hsf1-StrepTag II = target: B2; test: pull-down; coexpression in E. coli; tandem affinity purification: Ni-IDA (6xHis-SUMO on Ssa1), Ulp1 cleavage, Strep-Tactin Sepharose (StrepTag II on Hsf1), elution with desthiobiotin; LWB150 (40 mM HEPES-KOH pH 7.5, 150 mM NaCl, 5 mM MgCl2, 5% glycerol); stoichiometry by densitometry of a Coomassie stained gel; settings: partners not purified
[1] = target: the molecule itself; test: SEC; 500 ul of 2 mg/ml purified complex on HiLoad 16/600 Superdex200 pg, 1 mL/min, LWB150

Row | stoichiometry N (Hsf1-StrepTag II) [Hsf1 per Ssa1] | Binder | binding result [1]
1 | 3 | B1 | –
2 | – | B2 | binds
